Test results from US20110245167A1 (UNIVERSITY OF TOLEDO, published 2011).

Target: Recombinant human Src expressed in Sf9 insect cells (purified recombinant full-length Src from Upstate … (human, UniProt P12931 2-536))
Assay: cell-based or functional assay

B1: pNaKtide (HIV-Tat-NaKtide) (peptide)
peptide: not shown
IC50 of Src inhibition (in vitro kinase assay): ~5 nM
